Experiments:
[1] = target: Leishmania infantum prostaglandin F synthase 1 (LiPGFS1) (Leishmania infantum); assay: SEC; Superdex 75 10/300; LiPGFS1 kept 96 h at 4°C without a reducing agent, run without TCEP; the dimer relies on a disulfide bond
purified protein [2] = substrate: O=CC(=O)c1ccccc1; assay: purified protein; format: biochemical, Trypanosoma cruzi; conditions: 100 µM NADPH, 25 mM HEPES, 150 mM NaCl, pH 7.33
purified protein [3] = substrate: CC(=O)C=O; assay: purified protein; format: biochemical, Trypanosoma cruzi; conditions: 100 µM NADPH, 25 mM HEPES, 150 mM NaCl, pH 7.33
purified protein [4] = substrate: O=CC(O)CO; assay: purified protein; format: biochemical, Trypanosoma cruzi; conditions: 100 µM NADPH, 25 mM HEPES, 150 mM NaCl, pH 7.33
purified protein [5] = substrate: O=Cc1ccccc1[N+](=O)[O-]; assay: purified protein; format: biochemical, Trypanosoma cruzi; conditions: 100 µM NADPH, 25 mM HEPES, 150 mM NaCl, pH 7.33
purified protein [6] = substrate: O=CC=O; assay: purified protein; format: biochemical, Trypanosoma cruzi; conditions: 100 µM NADPH, 25 mM HEPES, 150 mM NaCl, pH 7.33
purified protein [7] = substrate: O=Cc1cccc([N+](=O)[O-])c1; assay: purified protein; format: biochemical, Trypanosoma brucei; conditions: 100 µM NADPH, 25 mM HEPES, 150 mM NaCl, pH 7.33
purified protein [8] = substrate: O=CC(=O)c1ccccc1; assay: purified protein; format: biochemical, Trypanosoma brucei; conditions: 100 µM NADPH, 25 mM HEPES, 150 mM NaCl, pH 7.33
purified protein [9] = substrate: CC(=O)C=O; assay: purified protein; format: biochemical, Trypanosoma brucei; conditions: 100 µM NADPH, 25 mM HEPES, 150 mM NaCl, pH 7.33
purified protein [10] = substrate: O=Cc1ccc([N+](=O)[O-])cc1; assay: purified protein; format: biochemical, Trypanosoma brucei; conditions: 100 µM NADPH, 25 mM HEPES, 150 mM NaCl, pH 7.33
purified protein [11] = substrate: O=Cc1ccccc1[N+](=O)[O-]; assay: purified protein; format: biochemical, Trypanosoma brucei; conditions: 100 µM NADPH, 25 mM HEPES, 150 mM NaCl, pH 7.33
purified protein [12] = substrate: O=CC(=O)c1ccccc1; assay: purified protein; format: biochemical, Leishmania infantum; conditions: 100 µM NADPH, 25 mM HEPES, 150 mM NaCl, pH 7.33
purified protein [13] = substrate: CC(=O)C=O; assay: purified protein; format: biochemical, Leishmania infantum; conditions: 100 µM NADPH, 25 mM HEPES, 150 mM NaCl, pH 7.33
purified protein [14] = substrate: O=CC(O)CO; assay: purified protein; format: biochemical, Leishmania infantum; conditions: 100 µM NADPH, 25 mM HEPES, 150 mM NaCl, pH 7.33
purified protein [15] = substrate: O=Cc1ccc([N+](=O)[O-])cc1; assay: purified protein; format: biochemical, Leishmania infantum; conditions: 100 µM NADPH, 25 mM HEPES, 150 mM NaCl, pH 7.33
purified protein [16] = substrate: O=Cc1ccccc1[N+](=O)[O-]; assay: purified protein; format: biochemical, Leishmania infantum; conditions: 100 µM NADPH, 25 mM HEPES, 150 mM NaCl, pH 7.33
purified protein [17] = substrate: O=Cc1cccc([N+](=O)[O-])c1; assay: purified protein; format: biochemical, Leishmania infantum; conditions: 100 µM NADPH, 25 mM HEPES, 150 mM NaCl, pH 7.33
purified protein [18] = substrate: O=CC=O; assay: purified protein; format: biochemical, Leishmania infantum; conditions: 100 µM NADPH, 25 mM HEPES, 150 mM NaCl, pH 7.33

Leishmania infantum prostaglandin F synthase 1 (LiPGFS1) (enzyme)
percent of the protein eluting as dimer [1]: 25% | stoichiometry N [1]: 2

B1: TcAKR (Trypanosoma cruzi) (protein)
chain: MNCNYNCVTLHNSAQMPQLGLGVWRAQDGAETANAVRWAIEAGYRHIDTACIYNNEKGVGQGIRESGVPREEVWVTTKVWNSDQGYEKTLAAFERSRELLGLEYIDLYLIHWPGKKKFVDTWKALEKLYEEKKVRAIGVSNFEPHHLTELFKSCKIRPMVNQVELHPLFQQRALREFCKQHNIAVTAWSPLGSGDEAGILKNHVLGEIAKKHNKSPAQVVIRWDIQHGIVTIPKSTNKGRIQENFNVWDFKLTEEEMRQIDELNEDKRIGADPDNFFPGGEE
notes: full-length ORF, pET15b-TEV, E. coli Rosetta (DE3) pLysS, His6 tag cut with TEV protease; monomer
Km (purified protein [2]): 50 ± 3 µM | kcat (purified protein [2]): 4.46 ± 0.08 s⁻¹ | kcat/Km (purified protein [2]): 89200 M⁻¹ s⁻¹ | kcat (purified protein [3]): 4.69 ± 0.03 s⁻¹ | kcat/Km (purified protein [3]): 19500 M⁻¹ s⁻¹ | Km (purified protein [4]): 1500 ± 170 µM | kcat (purified protein [4]): 4.94 ± 0.11 s⁻¹ | kcat/Km (purified protein [4]): 3290 M⁻¹ s⁻¹ | Km (purified protein [5]): 710 ± 80 µM | kcat (purified protein [5]): 2.25 ± 0.11 s⁻¹ | kcat/Km (purified protein [5]): 3170 M⁻¹ s⁻¹ | Km (purified protein [6]): 8300 ± 310 µM | kcat (purified protein [6]): 4.56 ± 0.05 s⁻¹ | kcat/Km (purified protein [6]): 549 M⁻¹ s⁻¹

B2: TbPGFS (Trypanosoma brucei brucei) (protein)
chain: MALTQSLKLSNGVMMPVLGFGMWKLQDGNEAETATMWAIKSGYRHIDTAAIYKNEESAGRAIASCGVPREELFVTTKLWNSDQGYESTLSAFEKSIKKLGLEYVDLYLIHWPGKDKFIDTWKAFEKLYADKKVRAIGVSNFHEHHIEELLKHCKVAPMVNQIELHPLLNQKALCEYCKSKNIAVTAWSPLGQGHLVEDARLKAIGGKYGKTAAQVMLRWEIQAGVITIPKSGNEARIKENGNIFDFELTAEDIQVIDGMNAGHRYGPDPEVFMNDF
notes: full-length ORF from genomic DNA, pET15b-TEV, E. coli, His6 tag cut with TEV protease; monomer
Km (purified protein [7]): 2 ± 0.1 µM | kcat (purified protein [7]): 0.34 ± 0.005 s⁻¹ | kcat/Km (purified protein [7]): 170000 M⁻¹ s⁻¹ | Km (purified protein [8]): 5 ± 0.8 µM | kcat (purified protein [8]): 0.34 ± 0.014 s⁻¹ | kcat/Km (purified protein [8]): 68000 M⁻¹ s⁻¹ | kcat (purified protein [9]): 0.38 ± 0.007 s⁻¹ | kcat/Km (purified protein [9]): 38000 M⁻¹ s⁻¹ | Km (purified protein [10]): 4.3 ± 0.2 µM | kcat (purified protein [10]): 0.43 ± 0.008 s⁻¹ | kcat/Km (purified protein [10]): 100000 M⁻¹ s⁻¹ | Km (purified protein [11]): 3 ± 0.3 µM | kcat (purified protein [11]): 0.41 ± 0.002 s⁻¹ | kcat/Km (purified protein [11]): 140000 M⁻¹ s⁻¹

B3: LiPGFS1 (Leishmania infantum) (protein)
chain: MTGKCTHVTLGNGVQVPQLGIGTWEAKNGNEVVQNIKWAINAGYRHIDTAHYYKNEKGVGQGISECGVPRSDIFVTTKLWNYDHGYESALAAFEQSRQALGVEYVDLYLIHWPGPNRSYIETWRAFEKLYEMKKVRAIGVSNFEPHHLDDLLANCTVPPMVNQVEMHPHFQQKALRAYCAEKNIAVTAWRPLGKGALLTEPQLVELAEKHKRSAAQVIIRWLIQLGVIAIPKSSHEERIKQNFDVFDFELSPEDMRRLESMDKNSRIGPSPETFFPTECK
notes: synthetic full-length ORF (GeneART), pET15b-TEV, E. coli, His6 tag cut with TEV protease; mainly monomer
Km (purified protein [12]): 140 ± 8 µM | kcat (purified protein [12]): 10.4 ± 0.22 s⁻¹ | kcat/Km (purified protein [12]): 74300 M⁻¹ s⁻¹ | Km (purified protein [13]): 800 ± 70 µM | kcat (purified protein [13]): 8.72 ± 0.17 s⁻¹ | kcat/Km (purified protein [13]): 10900 M⁻¹ s⁻¹ | Km (purified protein [14]): 2870 ± 80 µM | kcat (purified protein [14]): 8.72 ± 0.11 s⁻¹ | kcat/Km (purified protein [14]): 3040 M⁻¹ s⁻¹ | Km (purified protein [15]): 430 ± 26 µM | kcat (purified protein [15]): 0.48 ± 0.01 s⁻¹ | kcat/Km (purified protein [15]): 1110 M⁻¹ s⁻¹ | Km (purified protein [16]): 320 ± 20 µM | kcat (purified protein [16]): 8.5 ± 0.21 s⁻¹ | kcat/Km (purified protein [16]): 26600 M⁻¹ s⁻¹

B4: LiPGFS2 (Leishmania infantum) (protein)
chain: MADVGKAMVTLSNGVQMPQLGLGVWQSPAGEVTANAVKWALCAGYRHIDTAAIYKNEESVGAGLRASGVPREDVFITTKLWNTEQGYESTLAAFEESRQKLGVDYIDLYLIHWPRGKDIVSKEGKKYLDSWRAFEQLYKDKKVRAIGVSNFHIHHLEDVLAMCTVTPMVNQVELHPLNNQAELRAFCDAKQIKVEAWSPLGQGKLLSNPILAAIGAKYNKTAAQVILRWNIQKNLITIPKSVHKERIEENADVFNFELGAEDVMRIDALNTNSRYGPDPDEAQF
notes: as for B2
Km (purified protein [17]): 2 ± 0.3 µM | kcat (purified protein [17]): 1.04 ± 0.02 s⁻¹ | kcat/Km (purified protein [17]): 520000 M⁻¹ s⁻¹ | kcat (purified protein [13]): 1.13 ± 0.01 s⁻¹ | kcat/Km (purified protein [13]): 56500 M⁻¹ s⁻¹ | Km (purified protein [15]): 4 ± 0.6 µM | kcat (purified protein [15]): 1.13 ± 0.05 s⁻¹ | kcat/Km (purified protein [15]): 283000 M⁻¹ s⁻¹ | Km (purified protein [16]): 2.4 ± 0.3 µM | kcat (purified protein [16]): 1.04 ± 0.02 s⁻¹ | kcat/Km (purified protein [16]): 433000 M⁻¹ s⁻¹ | Km (purified protein [18]): 560 ± 50 µM | kcat (purified protein [18]): 1.05 ± 0.02 s⁻¹ | kcat/Km (purified protein [18]): 1880 M⁻¹ s⁻¹

Source: PMC6117947, “A role for trypanosomatid aldo-keto reductases in methylglyoxal, prostaglandin and isoprostane metabolism” (Biochemical Journal, 2018)
